T1: IL-11 (UniProt P20809 22-199, limits assumed)
T1 construct: also called IL-11 protein; IL-11 antigen
T1 sequence (looked up): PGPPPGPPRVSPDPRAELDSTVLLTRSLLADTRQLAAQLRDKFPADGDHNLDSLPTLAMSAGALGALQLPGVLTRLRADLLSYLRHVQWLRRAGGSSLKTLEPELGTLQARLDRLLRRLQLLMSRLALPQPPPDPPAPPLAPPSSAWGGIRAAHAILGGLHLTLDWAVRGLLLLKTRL

B1: 1A10 (scFv)
scFv: QVQLVQSGAEVKKPGASVKVSCKASDYTFTNYWLGWVRQAPGQGLEWMGHIYPGGGYTNYNEKFKGRVTMTRDTSTSTVYMELSSLRSEDTAVYYCARVSSGNDALDFWGQGTLVTVSSGGGGSGGGGSGGGGSEIVLTQSPATLSLSPGERATLSCRASESVDEYGISFMNWFQQKPGQAPRLLIYSASNQGSGIPARFSGSGSGTDFTLTISSLEPEDFAVYFCQQSKEQPWTFGGGTKLEIK
B2: “VH1+VL3”-scFv (scFv)
scFv: QVQLVQSGAEVKKPGASVKVSCKASDYTFTNYWLGWVRQAPGQGLEWMGHIYPGGGYTNYNEKFKGRVTMTRDTSTSTVYMELSSLRSEDTAVYYCARVRSGNDALDFWGQGTLVTVSSGGGGSGGGGSGGGGSEIVLTQSPATLSLSPGERATLSCRASESVDEYGISFMNWFQQKPGQAPRLLIYSASNQGSGIPARFSGSGSGTDFTLTISSLEPEDFAVYFCQQSKEVPWTFGGGTKLEIK
B3: “VH4+VL4”-scFv (scFv)
scFv: QVQLVQSGAEVKKPGASVKVSCKASDYTFTNYWLGWVRQAPGHGLEWIGHIYPGGGYTNYNEKFKGRATLTADTSTSTVYMELSSLRSEDTAVYFCARVRSGNDALDFWGQGTLVTVSSGGGGSGGGGSGGGGSEIVLTQSPATLSLSPGERATLSCRASESVDEYGISFMNWFQQKPGQAPRLLIYSASNQGSGIPARFSGSGSGTDFTLTISSLEPEDFAMYFCQQSKEVPWTFGGGTKLEIK
B4: “VH2+VL3”-scFv (scFv)
scFv: QVQLVQSGAEVKKPGASVKVSCKASDYTFTNYWLGWVRQAPGQGLEWIGHIYPGGGYTNYNEKFKGRVTMTADTSTSTVYMELSSLRSEDTAVYFCARVRSGNDALDFWGQGTLVTVSSGGGGSGGGGSGGGGSEIVLTQSPATLSLSPGERATLSCRASESVDEYGISFMNWFQQKPGQAPRLLIYSASNQGSGIPARFSGSGSGTDFTLTISSLEPEDFAVYFCQQSKEVPWTFGGGTKLEIK
B5: “VH1+VL2”-scFv (scFv)
scFv: QVQLVQSGAEVKKPGASVKVSCKASDYTFTNYWLGWVRQAPGQGLEWMGHIYPGGGYTNYNEKFKGRVTMTRDTSTSTVYMELSSLRSEDTAVYYCARVRSGNDALDFWGQGTLVTVSSGGGGSGGGGSGGGGSEIVLTQSPATLSLSPGERATLSCRASESVDEYGISFMNWYQQKPGQAPRLLIYSASNQGSGIPARFSGSGSGTDFTLTISSLEPEDFAVYFCQQSKEVPWTFGGGTKLEIK
B6: “VH3+VL2”-scFv (scFv)
scFv: QVQLVQSGAEVKKPGASVKVSCKASDYTFTNYWLGWVRQAPGQGLEWIGHIYPGGGYTNYNEKFKGRATLTADTSTSTVYMELSSLRSEDTAVYFCARVRSGNDALDFWGQGTLVTVSSGGGGSGGGGSGGGGSEIVLTQSPATLSLSPGERATLSCRASESVDEYGISFMNWYQQKPGQAPRLLIYSASNQGSGIPARFSGSGSGTDFTLTISSLEPEDFAVYFCQQSKEVPWTFGGGTKLEIK
B7: “VH3+VL3”-scFv (scFv)
scFv: QVQLVQSGAEVKKPGASVKVSCKASDYTFTNYWLGWVRQAPGQGLEWIGHIYPGGGYTNYNEKFKGRATLTADTSTSTVYMELSSLRSEDTAVYFCARVRSGNDALDFWGQGTLVTVSSGGGGSGGGGSGGGGSEIVLTQSPATLSLSPGERATLSCRASESVDEYGISFMNWFQQKPGQAPRLLIYSASNQGSGIPARFSGSGSGTDFTLTISSLEPEDFAVYFCQQSKEVPWTFGGGTKLEIK
B8: “VH3+VL1”-scFv (scFv)
scFv: QVQLVQSGAEVKKPGASVKVSCKASDYTFTNYWLGWVRQAPGQGLEWIGHIYPGGGYTNYNEKFKGRATLTADTSTSTVYMELSSLRSEDTAVYFCARVRSGNDALDFWGQGTLVTVSSGGGGSGGGGSGGGGSEIVLTQSPATLSLSPGERATLSCRASESVDEYGISFMNWYQQKPGQAPRLLIYSASNQGSGIPARFSGSGSGTDFTLTISSLEPEDFAVYYCQQSKEVPWTFGGGTKLEIK
B9: “VH1+VL4”-scFv (scFv)
scFv: QVQLVQSGAEVKKPGASVKVSCKASDYTFTNYWLGWVRQAPGQGLEWMGHIYPGGGYTNYNEKFKGRVTMTRDTSTSTVYMELSSLRSEDTAVYYCARVRSGNDALDFWGQGTLVTVSSGGGGSGGGGSGGGGSEIVLTQSPATLSLSPGERATLSCRASESVDEYGISFMNWFQQKPGQAPRLLIYSASNQGSGIPARFSGSGSGTDFTLTISSLEPEDFAMYFCQQSKEVPWTFGGGTKLEIK
B10: “VH2+VL1”-scFv (scFv)
scFv: QVQLVQSGAEVKKPGASVKVSCKASDYTFTNYWLGWVRQAPGQGLEWIGHIYPGGGYTNYNEKFKGRVTMTADTSTSTVYMELSSLRSEDTAVYFCARVRSGNDALDFWGQGTLVTVSSGGGGSGGGGSGGGGSEIVLTQSPATLSLSPGERATLSCRASESVDEYGISFMNWYQQKPGQAPRLLIYSASNQGSGIPARFSGSGSGTDFTLTISSLEPEDFAVYYCQQSKEVPWTFGGGTKLEIK
B11: “VH1+VL1”-scFv (scFv)
scFv: QVQLVQSGAEVKKPGASVKVSCKASDYTFTNYWLGWVRQAPGQGLEWMGHIYPGGGYTNYNEKFKGRVTMTRDTSTSTVYMELSSLRSEDTAVYYCARVRSGNDALDFWGQGTLVTVSSGGGGSGGGGSGGGGSEIVLTQSPATLSLSPGERATLSCRASESVDEYGISFMNWYQQKPGQAPRLLIYSASNQGSGIPARFSGSGSGTDFTLTISSLEPEDFAVYYCQQSKEVPWTFGGGTKLEIK
notes: CHO expression supernatant
B12: “VH3+VL4”-scFv (scFv)
scFv: QVQLVQSGAEVKKPGASVKVSCKASDYTFTNYWLGWVRQAPGQGLEWIGHIYPGGGYTNYNEKFKGRATLTADTSTSTVYMELSSLRSEDTAVYFCARVRSGNDALDFWGQGTLVTVSSGGGGSGGGGSGGGGSEIVLTQSPATLSLSPGERATLSCRASESVDEYGISFMNWFQQKPGQAPRLLIYSASNQGSGIPARFSGSGSGTDFTLTISSLEPEDFAMYFCQQSKEVPWTFGGGTKLEIK
B13: “VH4+VL2”-scFv (scFv)
scFv: QVQLVQSGAEVKKPGASVKVSCKASDYTFTNYWLGWVRQAPGHGLEWIGHIYPGGGYTNYNEKFKGRATLTADTSTSTVYMELSSLRSEDTAVYFCARVRSGNDALDFWGQGTLVTVSSGGGGSGGGGSGGGGSEIVLTQSPATLSLSPGERATLSCRASESVDEYGISFMNWYQQKPGQAPRLLIYSASNQGSGIPARFSGSGSGTDFTLTISSLEPEDFAVYFCQQSKEVPWTFGGGTKLEIK
B14: “VH2+VL4”-scFv (scFv)
scFv: QVQLVQSGAEVKKPGASVKVSCKASDYTFTNYWLGWVRQAPGQGLEWIGHIYPGGGYTNYNEKFKGRVTMTADTSTSTVYMELSSLRSEDTAVYFCARVRSGNDALDFWGQGTLVTVSSGGGGSGGGGSGGGGSEIVLTQSPATLSLSPGERATLSCRASESVDEYGISFMNWFQQKPGQAPRLLIYSASNQGSGIPARFSGSGSGTDFTLTISSLEPEDFAMYFCQQSKEVPWTFGGGTKLEIK
B15: “VH4+VL3”-scFv (scFv)
scFv: QVQLVQSGAEVKKPGASVKVSCKASDYTFTNYWLGWVRQAPGHGLEWIGHIYPGGGYTNYNEKFKGRATLTADTSTSTVYMELSSLRSEDTAVYFCARVRSGNDALDFWGQGTLVTVSSGGGGSGGGGSGGGGSEIVLTQSPATLSLSPGERATLSCRASESVDEYGISFMNWFQQKPGQAPRLLIYSASNQGSGIPARFSGSGSGTDFTLTISSLEPEDFAVYFCQQSKEVPWTFGGGTKLEIK
B16: “VH4+VL1”-scFv (scFv)
scFv: QVQLVQSGAEVKKPGASVKVSCKASDYTFTNYWLGWVRQAPGHGLEWIGHIYPGGGYTNYNEKFKGRATLTADTSTSTVYMELSSLRSEDTAVYFCARVRSGNDALDFWGQGTLVTVSSGGGGSGGGGSGGGGSEIVLTQSPATLSLSPGERATLSCRASESVDEYGISFMNWYQQKPGQAPRLLIYSASNQGSGIPARFSGSGSGTDFTLTISSLEPEDFAVYYCQQSKEVPWTFGGGTKLEIK
B17: “VH2+VL2”-scFv (scFv)
scFv: QVQLVQSGAEVKKPGASVKVSCKASDYTFTNYWLGWVRQAPGQGLEWIGHIYPGGGYTNYNEKFKGRVTMTADTSTSTVYMELSSLRSEDTAVYFCARVRSGNDALDFWGQGTLVTVSSGGGGSGGGGSGGGGSEIVLTQSPATLSLSPGERATLSCRASESVDEYGISFMNWYQQKPGQAPRLLIYSASNQGSGIPARFSGSGSGTDFTLTISSLEPEDFAVYFCQQSKEVPWTFGGGTKLEIK

One experiment has as its target T1, IL-11. Kind of experiment: phage ELISA on IL-11.
In turn, B1 had an ELISA of 2.06.

The target in another experiment is T1, IL-11. Briefly: SPR Biacore, scFv captured, IL-11 400 nM. As for the experimental part: The measure method included the steps of capturing the humanized single-chain antibody at a flow rate of 10 uL/min. […] Finally, the chip was regenerated with 10 mM glycine buffer.
Turning to B2, binding was put at a Kd of 12.3 nM, the koff worked out at 0.000436 s⁻¹ and the kon was determined as 35500 M⁻¹ s⁻¹.
Taken in the same sequence, the figures for B3 were 10 nM, 0.000481 s⁻¹ and 47900 M⁻¹ s⁻¹.
Taken in the same sequence, the figures for B4 were 11.9 nM, 0.000541 s⁻¹ and 45600 M⁻¹ s⁻¹.
On the same counts, the results for B5 are 11.2 nM, 0.000461 s⁻¹ and 41300 M⁻¹ s⁻¹.
Regarding B6, the Kd was 14.6 nM, the koff came to 0.00068 s⁻¹ and the kon was 46500 M⁻¹ s⁻¹.
On the same counts, the results for B7 are 9.76 nM, 0.000464 s⁻¹ and 47600 M⁻¹ s⁻¹.
B8 registered a Kd of 22.5 nM, a koff of 0.001 s⁻¹ and an association rate constant (kon) of 44500 M⁻¹ s⁻¹.
On the same counts, the results for B9 are 11.7 nM, 0.000387 s⁻¹ and 33100 M⁻¹ s⁻¹.
On the same counts, the results for B10 are 16.7 nM, 0.00089 s⁻¹ and 53400 M⁻¹ s⁻¹.
On the same counts, the results for B11 are 21.6 nM, 0.000758 s⁻¹ and 35100 M⁻¹ s⁻¹.
Consider B12, for which the affinity, expressed as Kd, was 13.3 nM; the koff amounted to 0.000556 s⁻¹; the kon was found to be 41800 M⁻¹ s⁻¹.
On the same counts, the results for B13 are 11.1 nM, 0.000614 s⁻¹ and 55200 M⁻¹ s⁻¹.
On the same counts, the results for B14 are 10.8 nM, 0.000528 s⁻¹ and 48800 M⁻¹ s⁻¹.
With B15, the Kd worked out at 11.2 nM, the koff stood at 0.000516 s⁻¹ and the kon stood at 46100 M⁻¹ s⁻¹.
On the same counts, the results for B16 are 17.2 nM, 0.00084 s⁻¹ and 48900 M⁻¹ s⁻¹.
Taken in the same sequence, the figures for B17 were 17.8 nM, 0.000812 s⁻¹ and 45700 M⁻¹ s⁻¹.

A further experiment deals with T1, IL-11. Briefly: flow cytometry of phage clone; cells not given.
With B1, the “Flow (Mean)” value amounted to 2200 mean fluorescence.

(Values after US20250002574A1 (SUNSHINE LAKE PHARMA, published 2025).)
